From patent US20080194020A1, “Methods For Producing Dendritic Cells That Have Acquired Ctl-Inducing Ability” (Medical and Biological Laboratories Co., Ltd., priority 2004, published 2008)

B1: OVA: Chicken ovalbumin used as an antigen model (protein)
chain: GSIGAASMEFCFDVFKELKVHHANENIFYCPIAIMSALAMVYLGAKDSTRTQINKVVRFDKLPGFGDSIEAQCGTSVNVHSSLRDILNQITKPNDVYSFSLASRLYAEERYPILPEYLQCVKELYRGGLEPINFQTAADQARELINSWVESQTNGIIRNVLQPSSVDSQTAMVLVNAIVFKGLWEKAFKDEDTQAMPFRVTEQESKPVQMMYQIGLFRVASMASEKMKILELPFASGTMSMLVLLPDEVSGLEQLESIINFEKLTEWTSSNVMEERKIKVYLPRMKMEEKYNLTSVLMAMGITDVFSSSANLSGISSAESLKISQAVHAAHAEINEAGREVVGSAEAGVDAASVSEEFRADHPFLFCIKHIATNAVLFFGRCVSP
B2: bOVA: OVA antigen recovered with streptavidin beads (biotin-labeled samples) (protein)
chain: B1 chain
B3: OVA-KDEL: OVA with the endoplasmic reticulum localization sequence KDEL added to its C-terminus, SEQ ID NO: 14 (protein)
chain: MGSIGAASMEFCFDVFKELKVHHANENIFYCPIAIMSALAMVYLGAKDSTRTQINKVVRFDKLPGFGDSIEAQCGTSVNVHSSLRDILNQITKPNDVYSFSLASRLYAEERYPILPEYLQCVKELYRGGLEPINFQTAADQARELINSWVESQTNGIIRNVLQPSSVDSQTAMVLVNAIVFKGLWEKAFKDEDTQAMPFRVTEQESKPVQMMYQIGLFRVASMASEKMKILELPFASGTMSMLVLLPDEVSGLEQLESIINFEKLTEWTSSNVMEERKIKVYLPRMKMEEKYNLTSVLMAMGITDVFSSSANLSGISSAESLKISQAVHAAHAEINEAGREVVGSAEAGVDAASVSEEFRADHPFLFCIKHIATNAVLFFGRCVSPASAEDYEYPSRSNGTKNNTSQASKDEL

Experiments:
DC2.4 cells [1] = assay: MHC class I cross-presentation by DC2.4 cells to OT-I CD8+ T cells (IL-2 ELISA); assay type: cell-based, mouse; conditions: for antigenicity for stimulation of CD8+ OT-I T cells: FIG. 8a, OVA compared with bOVA
Source text: Whether knock-down of cellular components involved in ERAD decreases the cross-presentation of exogenous OVA antigen was examined using a system for evaluating the level of antigen presentation, which uses naive CD8^+ T cells from OT-I mice and DC2.4 cells. The DC2.4 cells used as a model of dendritic cells are of the H-2Kb mouse MHC class I haplotype. OT-I (H-2Kb) mice are transgenic mice expressing a T cell receptor (TCRα and β) that recognizes an antigenic peptide (SIINFEKL) (SEQ ID NO: 15) derived from OVA presented on the H-2Kb molecules. The CD8^+ cells of OT-I mice are activated when they recognize OVA peptides presented by BMDCs derived from H-2Kb mice or by DC2.4 cells. When OVA or bOVA is incubated with and affixed onto DC2.4 cells and the cells are further incubated with naive CD8^+ T cells of OT-I mice, the amount of IL-2 produced by OT-I CD8^+ T cells serves as an index of T-cell stimulation as a result of OVA antigen presented by DC2.4 cells.
Parental or knocked-down DC2.4 cells were pre-incubated in a culture medium supplemented with 50 μg mL^−1 polymyxin B for 30 minutes in the presence or absence of lactacystin or MG-132, and incubated with OVA (250 μg mL^−1) or SIINFEKL peptides (10 ng mL^−1) for six hours. The cells were washed, fixed with 1% paraformaldehyde, and aliquoted into microtiter plates (5×10^4 per well). 5×10^4 CD8^+ T cells purified from splenocytes of OT-1 mice using magnetic beads were added to each well and after a 24-hour incubation, the IL-2 secretion was measured by ELISA (BD Biosciences) in triplicate.
DC2.4 cells were incubated with OVA (0, 50, or 250 μg/mL) in RPMI1640/10c% FCS for six hours at 37° C., in the presence or absence of pig-derived HSP90 (10 μg/mL). After washing away the antigen and HSP, OT-I CD8^+ T cells were added, cells were cultured overnight at 37° C., and the amount of IL-2 comprised in the supernatant was measured by the ELISA method.
The timing of the addition of HSP90 (10 μg/mL) and OVA (250 μg/mL) to DC2.4 cells was varied, and the effect on class I antigen presentation was observed. (i) HSP90 was added first, DC2.4 cells were washed, and then OVA was added. (ii) HSP90 and OVA were added simultaneously to DC2.4 cells. (iii) OVA was added first, and after washing DC2.4 cells, HSP90 was added. The results obtained under these three conditions were compared. […]
Under condition (i), HSP90 was added to DC2.4 cells, the cells were cultured for 30 minutes and then washed to remove HSP90. […] DC2.4 cells activated with OVA by the above procedure were plated in a 96-well plate, OT-I mouse-derived CD8^+ T cells were added to this, and after culturing overnight, the amount of IL-2 released into the supernatant was measured by ELISA. […]

DC2.4 cells [2] = assay: MHC class II antigen presentation by DC2.4 cells to OT-II CD4+ T cells (IL-2 production); assay type: cell-based, mouse; conditions: FIG. 9 control: DC2.4 cells cultured with OVA, no NH4Cl
Method: DC2.4 cells pretreated in the presence of NH4Cl were cultured with OVA, and then the stimulation of OT-I CD8^+ T cells in response to MHC class I antigen presentation (circles) and stimulation of OT-II CD4^+ T cells in response to MHC class II antigen presentation (triangles) was determined by measuring IL-2 production levels. IL-2 production level in the presence of NH4Cl was expressed as a ratio relative to the control (IL-2 production was 700 pg/mL relative to OT-I, and 20 pg mL relative to OT-II).

DC2.4 cells [3] = assay: Uptake of antigenic protein into DC2.4 cells; assay type: cell-based, mouse; conditions: CHIP-knocked-down DC2.4 cells
Method: Next, DC2.4 cells were incubated for a set amount of time with OVA in the presence or absence of lactacystin (LC), and OVA taken up into the cells was measured. OVA taken up into cells in the presence or absence of Hsp90 was measured similarly.

DC2.4 cells [4] = tested on: DC2.4 cells
Method: Intracellular localization of foreign antigens was examined by cell fractionation methods. Chicken ovalbumin (OVA) was used as an antigen model, and DC2.4 (haplotype H-2Kb), a cultured cell line of mouse dendritic cells, was used as a model for dendritic cells. […] BMDCs with a haplotype of H-2Kb, the same as that of DC2.4, were used as the control. BMDCs were induced from the bone marrow cells of C57BL/6 mice (SLC) in RPMI-1640 supplemented with 5% FCS using 5 ng/mL GM-CSF (MEL), and those cells purified by magnetic beads after five days of culturing were used.
DC2.4 cells made to take up bOVA antigens were suspended in 10 mM Tris-HCl (pH7.4) containing 250 mM sucrose, this was homogenized using glass beads, centrifuged for 30 minutes at 250,000×g, and then fractionated. The supernatant was used as the soluble fraction; the precipitates were suspended in the same buffer as described above and used as the microsomal fraction. A fixed amount was incubated in the presence or absence of 1% TritonX-100, and together with or without 100 μg mL^−1 trypsin. Before collecting bOVA, soybean trypsin inhibitor (Sigma) was added at 500 μg mL^−1.

DC2.4 cells [5] = assay: Polyubiquitination of antigenic protein taken up by DC2.4 cells (SDS-PAGE, Western blot with anti-polyubiquitin antibody); assay type: cell-based, mouse
Method: There are reports that when the KDEL sequence (Lys-Asp-Glu-Leu) (SEQ ID NO: 3), an endoplasmic reticulum localization sequence, is added to the carboxyl terminus of a protein localized in the ER lumen, the protein is repeatedly transported between the ER and Golgi apparatus, and ERAD of that protein is promoted. Therefore, DC2.4 cells were made to take up OVA with KDEL (SEQ ID NO: 3) added to its C-terminus, and OVA that was polyubiquitinated after uptake was observed by SDS-PAGE and Western blotting. OVA to which a KDEL sequence (SEQ ID NO: 3) was added was constructed and expressed as follows: using a plasmid comprising a DNA sequence encoding OVA as a template, PCR was performed using oligo-1 (SEQ ID NO: 10) and oligo-2 (SEQ ID NO: 11) as primers. The amplified PCR product of approximately 1100 bp was introduced into a pCR-Blunt vector (Invitrogen) to obtain vector-1. Oligo-3 (SEQ ID NO: 12) and oligo-4 (SEQ ID NO: 13) were annealed, and the obtained gene fragment of approximately 100 bp was introduced into the pCR-Blunt vector to obtain vector-2. Vector-2 was digested with SpeI, the obtained gene fragment of approximately 130 bp was introduced into vector-1 that had been digested with NheI to obtain vector-3. An approximately 1250-bp gene fragment (OVA-KDEL) obtained when vector-3 was digested with BamHI/SpeI was introduced into a vector for gene expression, and then expressed. […]

Row | Molecule | antigenicity for stimulation of CD8+ OT-I T cells (DC2.4 cells [1]) | IL-2 production, OT-I CD8+ T cells (DC2.4 cells [1]; FIG. 9 control: DC2.4 cells cultured with OVA, no NH4Cl) [pg/mL] | IL-2 production, OT-II CD4+ T cells (DC2.4 cells [2]) [pg·mL] | uptake of bOVA relative to parental DC2.4 cells (DC2.4 cells [3]) | share of bOVA taken up by cells recovered as trypsin-resistant bOVA from the microsomal fraction (DC2.4 cells [4]) [%] | polyubiquitination of bOVA (DC2.4 cells [5]; CHIP-knocked-down DC2.4 cells) [%] | antigen presentation level compared to OVA (OT-I CD8+ T cells) (DC2.4 cells [1]; DC2.4 cells, data not shown) | polyubiquitination of the substrate compared to OVA (DC2.4 cells [5]; DC2.4 cells made to take up OVA with KDEL added to its C-terminus)
1 | B1 | equally antigenic | 700 | 20 | – | – | – | – | –
2 | B2 | equally antigenic | – | – | about 70% | ≥ 70 | 34 | – | –
3 | B3 | – | – | – | – | – | – | clearly found to be stronger | significantly promoted polyubiquitination
